Positions count from the first letter of the chain named. Numbers in names are those of the source.
B1: feline IgG1a mutant ID No. 273: S252R, S434F, Q311W (antibody, part only; not given: Variable domains, not shown: another chain or arm of the molecule)
constant: ASTTAPSVFPLAPSCGTTSGATVALACLVLGYFPEPVTVSWNSGALTSGVHTFPAVLQASGLYSLSSMVTVPSSRWLSDTFTCNVAHPPSNTKVDKTVRKTDHPPGPKPCDCPKCPPPEMLGGPSIFIFPPKPKDTLRISRTPEVTCLVVDLGPDDSDVQITWFVDNTQVYTAKTSPREEQFNSTYRVVSVLPILHWDWLKGKEFKCKVNSKSLPSPIERTISKAKGQPHEPQVYVLPPAQEELSRNKVSVTCLIKSFHPPDIAVEWEITGQPEPENNYRTTPPQLDSDGTYFVYSKLSVDRSHWQRGNTYTCSVSHEALHFHHTQKSLTQSPGK
B2: feline IgG1a mutant ID No. 279: S252R, S434Y (antibody, part only; not given: Variable domains, not shown: another chain or arm of the molecule)
constant: B1 constant with W197Q, F322Y
B3: feline IgG1a mutant ID No. 281: S252Y, D312P, L314K, S434Y (antibody, part only; not given: Variable domains, not shown: another chain or arm of the molecule)
constant: B1 constant with R138Y, W197Q, D198P, L200K, F322Y
B4: feline IgG1a mutant ID No. 274: S252R, S434H, Q311W (antibody, part only; not given: Variable domains, not shown: another chain or arm of the molecule)
constant: B1 constant with F322H
B5: feline IgG1a mutant ID No. 326: S428Y, D312P, S434Y, P247V, S252H (antibody, part only; not given: Variable domains, not shown: another chain or arm of the molecule; small tags and cut ends)
constant: B1 constant with P133V, R138H, W197Q, D198P, S316Y, F322Y
B6: feline IgG1a mutant ID No. 300: S428Y, Q311W, D312P, S434Y (antibody, part only; not given: Variable domains, not shown: another chain or arm of the molecule)
constant: B1 constant with R138S, D198P, S316Y, F322Y
B7: feline IgG1a mutant ID No. 331: S428Y, D312P, S434Y, Q311M, L314K (antibody, part only; not given: Variable domains, not shown: another chain or arm of the molecule; small tags and cut ends)
constant: B1 constant with R138S, W197M, D198P, L200K, S316Y, F322Y
B8: feline IgG1a mutant ID No. 340: S252Y, S428M, S434F, Q311R (antibody, part only; not given: Variable domains, not shown: another chain or arm of the molecule)
constant: B1 constant with R138Y, W197R, S316M
B9: feline IgG1a mutant ID No. 321: S428Y, D312P, S434Y, A431K (antibody, part only; not given: Variable domains, not shown: another chain or arm of the molecule)
constant: B1 constant with R138S, W197Q, D198P, S316Y, A319K, F322Y
B10: feline IgG1a mutant ID No. 308: P247V, S252H (antibody, part only; not given: Variable domains, not shown: another chain or arm of the molecule; small tags and cut ends)
constant: B1 constant with P133V, R138H, W197Q, F322S
B11: feline IgG1a mutant ID No. 328: S428Y, D312P, S434Y, P247V, T250Q, S252H (antibody, part only; not given: Variable domains, not shown: another chain or arm of the molecule; small tags and cut ends)
constant: B1 constant with P133V, T136Q, R138H, W197Q, D198P, S316Y, F322Y
B12: feline IgG1a mutant ID No. 344: S252Y, S428M, S434F, D401R (antibody, part only; not given: Variable domains, not shown: another chain or arm of the molecule)
constant: B1 constant with R138Y, W197Q, D289R, S316M
B13: feline IgG1a mutant ID No. 295: S252Y, S428Y, Q311W, L314K, S434Y (antibody, part only; not given: Variable domains, not shown: another chain or arm of the molecule; small tags and cut ends)
constant: B1 constant with R138Y, L200K, S316Y, F322Y
B14: feline IgG1a mutant ID No. 325: S428Y, D312P, S434Y, D401R, T403R (antibody, part only; not given: Variable domains, not shown: another chain or arm of the molecule)
constant: B1 constant with R138S, W197Q, D198P, D289R, T291R, S316Y, F322Y
B15: feline IgG1a mutant ID No. 288: S252Y, S428Y, D312P, S434Y (antibody, part only; not given: Variable domains, not shown: another chain or arm of the molecule)
constant: B1 constant with R138Y, W197Q, D198P, S316Y, F322Y
B16: feline IgG1a mutant ID No. 341: S252Y, S428M, S434F, D312A (antibody, part only; not given: Variable domains, not shown: another chain or arm of the molecule; small tags and cut ends)
constant: B1 constant with R138Y, W197Q, D198A, S316M
B17: feline IgG1a mutant ID No. 317: S428M, A431K, S434P (antibody, part only; not given: variable domains and light chain, not shown: another chain or arm of the molecule)
constant: B1 constant with R138S, W197Q, S316M, A319K, F322P
B18: feline IgG1a mutant ID No. 329: S428Y, D312P, S434Y, Q311H, L314K (antibody, part only; not given: Variable domains, not shown: another chain or arm of the molecule; small tags and cut ends)
constant: B1 constant with R138S, W197H, D198P, L200K, S316Y, F322Y
B19: feline IgG1a mutant ID No. 318: S428M, A431K, S434Y (antibody, part only; not given: Variable domains, not shown: another chain or arm of the molecule)
constant: B1 constant with R138S, W197Q, S316M, A319K, F322Y
B20: feline IgG1a mutant ID No. 316: S428M, A431K (antibody, part only; not given: Variable domains, not shown: another chain or arm of the molecule)
constant: B1 constant with R138S, W197Q, S316M, A319K, F322S
B21: feline IgG1a mutant ID No. 327: S428Y, D312P, S434Y, P247V, T250Q (antibody, part only; not given: Variable domains, not shown: another chain or arm of the molecule; small tags and cut ends)
constant: B1 constant with P133V, T136Q, R138S, W197Q, D198P, S316Y, F322Y
B22: feline IgG1a mutant ID No. 301: S428Y, Q311W, L314K, S434Y (antibody, part only; not given: Variable domains, not shown: another chain or arm of the molecule)
constant: B1 constant with R138S, L200K, S316Y, F322Y
B23: feline IgG1a mutant ID No. 319: S428Y, D312P, A431K, S434P (antibody, part only; not given: variable domains, not shown: another chain or arm of the molecule)
constant: B1 constant with R138S, W197Q, D198P, S316Y, A319K, F322P
B24: feline IgG1a mutant ID No. 296: S252Y, S428Y, Q311W, S434Y (antibody, part only; not given: Variable domains, not shown: another chain or arm of the molecule; small tags and cut ends)
constant: B1 constant with R138Y, S316Y, F322Y
B25: feline IgG1a mutant ID No. 342: S252Y, S428M, S434F, D312P (antibody, part only; not given: Variable domains, not shown: another chain or arm of the molecule; small tags and cut ends)
constant: B1 constant with R138Y, W197Q, D198P, S316M
B26: feline IgG1a mutant ID No. 337: S252Y, S428M, S434F, D312H (antibody, part only; not given: Variable domains, not shown: another chain or arm of the molecule)
constant: B1 constant with R138Y, W197Q, D198H, S316M

Target: feline FcRn complex (FcRn-α subunit and β-microglobulin) (feline)
Assay: SPR (Biacore), FcRn on SA chip, pH 7.4

Binder | Kd [nM]
B1 | 4760
B2 | 12100
B3 | 1590
B4 | 3850
B5 | 13.7
B6 | 182
B7 | 14.6
B8 | 3.3
B9 | 10.2
B10 | 17.9
B11 | 8.68
B12 | 11
B13 | 201
B14 | 11.1
B15 | 3.22
B16 | 6.5
B17 | 15.6
B18 | 18.9
B19 | 25.3
B20 | 2420
B21 | 27.4
B22 | 494
B23 | 1080
B24 | 1480
B25 | 3.29
B26 | 8.96

Target: feline FcRn complex (FcRn-α subunit and β-microglobulin) (feline)
Assay: SPR (Biacore), FcRn on SA chip, pH 6

Binder | Kd [nM]
B1 | 4.77
B2 | 10.8
B3 | 2.35
B4 | 5.62
B5 | 0.0627
B6 | 0.235
B7 | 0.259
B8 | 0.025
B9 | 0.0539
B10 | 5.61
B11 | 0.0418
B12 | 0.0128
B13 | 0.675
B14 | 0.0072
B15 | 0.0268
B16 | 0.0353
B17 | 22.2
B18 | 0.338
B19 | 0.135
B20 | 4.87
B21 | 0.221
B22 | 1.11
B23 | 6.96
B24 | 0.544
B25 | 0.0063
B26 | 0.0272

Source: patent US20240400708A1
